# Test results from patent US7968692B2, “Elongase genes and uses thereof” (Abbott Laboratories, priority 1998, dated 2011).
# Experiments:
# Assay type in all cases: cell-based, Saccharomyces cerevisiae
# S. cerevisiae 334 [1] = assay: Expression of M. alpina elongase (MAELO) cDNA in baker's yeast, GC-FAME analysis of lipid fraction; conditions: substrate GLA; 40-48 hours at 25° C.
# Excerpt: The constructs pRAE-5, and pRAE-6 were transformed into S. cerevisiae 334 (Hoveland et al., Gene 83:57-64 (1989)) and screened for elongase activity. The plasmid pCGN7875 (Calgene LLC, Davis, Calif.) containing jojoba KCS gene in pYES2 vector (Invitrogen Corp., Carlsbad, Calif.) was used as a positive control. The substrate used to detect elongase activity in M. alpina elongase (MAELO) was GLA and that in jojoba KCS was oleic acid (OA). The negative control strain was S. cerevisiae 334 containing pYX242 vector. The cultures were grown for 40-48 hours at 25° C., in selective media (Ausubel et al., Short Protocols in Molecular Biology, Ch. 13, p. 3-5 (1992)), in the presence of a particular substrate. The expression of the jojoba KCS gene cloned in pYES2 was under the control of GAL1 promoter, while the promoter in pYX242 is TP1, which is constitutive. […] The GC-FAME analysis of the lipid fraction of each cell pellet was performed as previously described (Knutzon et al., supra).
# The jojoba KCS elongates long chain monounsaturated fatty acids 18:1n-9 to 20:1n-9. […] The activity of the M. alpina elongase, elongation (MAELO) of long chain monounsaturated and saturated fatty acids, is seen in the conversion of 18:1n-9 to 20:1n-9 and also in the synthesis of 24:0. The control strain, 334(pYX242) has very little or no detectable amount of 20:1 and 24:0 (see FIG. 10A). […]
# S. cerevisiae 334 [2] = assay: MAELO co-expressed with Δ5-desaturase (pCGR-4) in yeast, AA production; conditions: 25 μM GLA; pRAE-5 and pCGR-4 co-transformed; FIG. 11
# Experimental: Once 20:3n-6 is generated by the M. alpina elongase (MAELO), the Δ5-desaturase can convert it to AA in the desired expression system. To test this hypothesis, the constructs pRAE-5 and pCGR-4 (a Δ5-desaturase containing plasmid) were co-transformed into S. cerevisiae 334 and screened for AA production. The substrate used was 25 μM GLA (18:3n-6). If the M. alpina elongase (MAELO) is active in yeast, then the substrate will be converted to DGLA(20:3n-6), which the Δ5-desaturase will convert to AA(20:4n-6).
# S. cerevisiae 334 [3] = assay: Comparison of MAELO and S. cerevisiae ELO2 PUFA elongase activity in baker's yeast; conditions: 25 μM GLA
# Excerpt: The ELO2 gene encoding for the yeast elongase was cloned from an S. cerevisiae genomic library (Origene, Rockville, Md.) using the primers RO514 (SEQ ID NO: 94) (5′-GGCTATGGATCCATGAATTCACTCGTTACTCAATATG-3′) and RO515 (SEQ ID NO: 95)(5′-CCTGCCAAGCTTTTACCTTTTTCTTCTGTGTTGAG-3′) incorporating the restriction sites (underlined) BamHI and HindIII (respectively). The ELO2 gene was cloned into the vector pYX242 at the BamHI and HindIII sites, designated pRELO, transformed into the S. cerevisiae host 334 (Hoveland et al., supra) and screened for PUFA elongase activity. The vector plasmid was used as a negative control and 334(pRAE-5) was grown to compare the PUFA elongase activity. The cultures were grown as previously described with no galactose in the media and 25 μM GLA added as a substrate. […] Additionally, when DGLA produced is expressed as a percent of the total lipids (shown in parenthesis, FIG. 12), the clones 334(pRELO-1) and 334 (pRELO-2) produced 0.153% and 0.2% DGLA respectively, while 334(pYX242) produced 0.185% DGLA. […] The M. alpina PUFA elongase activity is specific for this conversion as evidenced by the higher amount of DGLA produced compared to the control, 334(pYX242).
# SC334 = assay: MAD (M. alpina direct) cDNA expression library screening in yeast, GLA to DGLA
# Experimental: To screen the library, the glycerol stocks were thawed and approximately 0.5 ml was added to 5 ml of liquid selective media lacking uracil (Ausubel et al., supra) and grown at 30° C. for 24 hours. The culture was then transferred into 50 ml of liquid selective medium lacking uracil with 2% galactose and 25 (D)M GLA (substrate for the elongase enzyme) for 24 hours at 25° C. with shaking. The GC-FAME analysis of the lipid content in the cell pellet of each induced culture was performed as previously described (Knutzon et al., supra). The MAELO (pRAE-5 in pYX242 grown in selective media lacking leucine) was used as a positive control in each batch run. MAELO had consistently been able to convert 1.5% of GLA to DGLA (see Example III).
# After screening and analyzing approximately 750 individual pools by GC-FAME analysis, as described in Example VIII, one pool of five colonies (i.e., MAD708) appeared to have significant enzymatic activity in converting GLA to DGLA. […] This pool was tested again under identical assay conditions to confirm the initial findings. […] Since MAD708 was a pool of five different clones, it was necessary to isolate the individual cDNA clone which encoded for elongase activity from this pool. To do this, the original MAD708 glycerol stock was plated onto a selective media agar plate lacking uracil (Ausubel et al., supra). […]
molecule,measurement,setting,value
"MAELO: Mortierella alpina elongase encoded by MAELO cDNA (SEQ ID NO:1), expressed in S. cerevisiae 334 from pRAE-5 (protein, listed as Mortierella alpina) MAAAILDKVNFGIDQPFGIKLDTYFAQAYELVTGKSIDSFVFQEGVTPLSTQREVAMWTITYFVVIFGGRQIMKSQDAFKLKPLFILHNFLLTIASGSLLLLFIENLVPILARNGLFYAICDDGAWTQRLELLYYLNYLVKYWELADTVFLVLKKKPLEFLHYFHHSMTMVLCFVQLGGYTSVSWVPITLNLTVHVFMYYYYMRSAAGVRIWWKQYLTTLQIVQFVLDLGFIYFCAYTYFAFTYFPWAPNVGKCAGTEGAALFGCGLLSSYLLLFINFYRITYNAKAKAAKERGSNFTPKTVKSGGSPKKPSKSKHI",percentage of 20:3n-6 in total lipid,S. cerevisiae 334 [1],0.324%
same,total amount of 20:3n-6 produced,S. cerevisiae 334 [1],2.504 µg
same,AA production,S. cerevisiae 334 [2],confirm the production of AA
same,increase of percent DGLA over 334(pYX242) (negative control),S. cerevisiae 334 [3],50.8%
same,DGLA produced as a percent of the total lipids,S. cerevisiae 334 [3]; FIG. 12,0.279%
same,amount of 20:3n-6 or DGLA produced relative to negative control pYX242,S. cerevisiae 334 [3]; FIG. 12,approximately 4 times
same,conversion of GLA to DGLA,"SC334; individual clones of MAD708 pool, FIG. 20",3.4%
same,conversion of GLA to DGLA,SC334; positive control in each batch run of library screening,1.5%
